According to patent US20230218710A1 (COHBAR, published 2023):
Square brackets hold non-standard residues; d marks the D form. Primed or numbered codes have the meaning given here. Ends that are not written are not given here. PEG12′ = not defined here

T1: Apelin Receptor (APJ) stably overexpressed in CHO-K1 AGTRL1 Gi cells (UniProt P35414 1-380, limits assumed)
T1 sequence (looked up): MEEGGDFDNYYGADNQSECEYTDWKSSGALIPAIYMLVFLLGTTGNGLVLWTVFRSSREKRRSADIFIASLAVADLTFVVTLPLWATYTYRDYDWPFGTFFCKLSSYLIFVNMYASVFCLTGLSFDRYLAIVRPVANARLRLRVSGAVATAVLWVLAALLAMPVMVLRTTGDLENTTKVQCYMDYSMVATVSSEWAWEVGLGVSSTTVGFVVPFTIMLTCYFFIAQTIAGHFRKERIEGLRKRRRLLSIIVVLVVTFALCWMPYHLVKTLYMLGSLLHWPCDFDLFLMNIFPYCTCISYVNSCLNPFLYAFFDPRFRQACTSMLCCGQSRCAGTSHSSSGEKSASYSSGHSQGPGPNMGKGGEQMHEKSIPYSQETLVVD


Target: T1, Apelin Receptor (APJ) stably …
Experiment: cell-based or functional assay

Binder	IC50 (M), inhibition of forskolin-stimulated cAMP accumulation
MRRMMGMVFQCLCGL [SEQ ID NO: 7]	1.24e-06 M
RRIIGIVFQSLCG[dA] [SEQ ID NO: 43]	2.07e-06 M
KRRMMGMVFQSLCGA ((PEG12) at the N-terminal K; C-terminal (dA) = D-alanine) [SEQ ID NO: 36]	1.6e-06 M
RRMMGMVFQSLCG[dA] (also: acetate salt, HCl salt) [SEQ ID NO: 15]	4.49e-06 M
KRRLLGLVFQSLCGA ((PEG12) at the N-terminal K; C-terminal (dA) = D-alanine) [SEQ ID NO: 37]	2.5e-06 M
[PEG12′]KRRIIGIVFQCLCG[dA] (cysteine pairing not given here) [SEQ ID NO: 42]	4.38e-06 M

Target: T1, Apelin Receptor (APJ) stably …
Experiment: cell-based or functional assay
Remark: another data set of the same source

Binder	inhibition of forskolin-induced cAMP, Percent of Pyr-Apelin-13 Control Activity (10 µM peptide)
RRMMGMVFQELCG[dA] [SEQ ID NO: 13]	49%
MRRMMGMVFQCLCGL [SEQ ID NO: 7]	109%
MMGMVFQS [SEQ ID NO: 47]	-6%
MMGMVFQSL [SEQ ID NO: 48]	15%
RMMGMVFQ [SEQ ID NO: 51]	24%
RRMMGMVFQCLEG[dA] [SEQ ID NO: 14]	39%
KRRMMGMVFQSLCGA ((PEG12) at the N-terminal K; C-terminal (dA) = D-alanine) [SEQ ID NO: 36]	101%
RRMMGMVFQSLCG[dA] (also: acetate salt, HCl salt) [SEQ ID NO: 15]	105%
KRRLLGLVFQSLCGA ((PEG12) at the N-terminal K; C-terminal (dA) = D-alanine) [SEQ ID NO: 37]	53%
RRMMGMVAQCLCG[dA] (cysteine pairing not given here) [SEQ ID NO: 11]	49%
MMGMVFQ [SEQ ID NO: 46]	11%
RRMMGMVEQCLCG[dA] (cysteine pairing not given here) [SEQ ID NO: 12]	24%
[PEG12′]KRRIIGIVFQCLCG[dA] (cysteine pairing not given here) [SEQ ID NO: 42]	33%
RMMGMVF [SEQ ID NO: 50]	8%
MMGMVFQSLCG[dA] [SEQ ID NO: 49]	14%

Target: ProLink tagged human APJ (Apelin Receptor) in CHO-K1 AGTRL1 β-Arrestin cells (human, UniProt P35414 1-380)
Experiment: cell-based or functional assay

Binder	β-Arrestin recruitment, Percent of Apelin-13 Control Activity (10 µM peptide)
RRMMGMVFQELCG[dA] [SEQ ID NO: 13]	1%
MRRMMGMVFQCLCGL [SEQ ID NO: 7]	91%
MMGMVFQS [SEQ ID NO: 47]	1%
MMGMVFQSL [SEQ ID NO: 48]	1%
RMMGMVFQ [SEQ ID NO: 51]	0%
RRMMGMVFQCLEG[dA] [SEQ ID NO: 14]	0%
KRRMMGMVFQSLCGA ((PEG12) at the N-terminal K; C-terminal (dA) = D-alanine) [SEQ ID NO: 36]	63%
RRMMGMVFQSLCG[dA] (also: acetate salt, HCl salt) [SEQ ID NO: 15]	40%
KRRLLGLVFQSLCGA ((PEG12) at the N-terminal K; C-terminal (dA) = D-alanine) [SEQ ID NO: 37]	12%
RRMMGMVAQCLCG[dA] (cysteine pairing not given here) [SEQ ID NO: 11]	0%
MMGMVFQ [SEQ ID NO: 46]	0%
RRMMGMVEQCLCG[dA] (cysteine pairing not given here) [SEQ ID NO: 12]	-1%
[PEG12′]KRRIIGIVFQCLCG[dA] (cysteine pairing not given here) [SEQ ID NO: 42]	8%
RMMGMVF [SEQ ID NO: 50]	0%
MMGMVFQSLCG[dA] [SEQ ID NO: 49]	1%
